Measurements reported in patent US20250145711A1 (Janssen / Centocor, published 2025).

Experiments:
[1] = target: T1, Human CD3 epsilon (CD3ε), on primary human pan T cells (human, UniProt P07766 23-207); test: cell-based or functional assay
[2] = target: T1, Human CD3 epsilon (CD3ε), on primary …; test: flow cytometry on human T cells, anti-human IgG Fc A647 detection
Outline: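 Binding read by flow cytometry on live singlet cells (SYTOX green exclusion) after A647 anti-human IgG Fc secondary at 2 ug/mL, 30 min on ice. Antibody dilution series was first incubated 1 hr at 37 °C with thawed primary human pan T cells, 50,000 per well.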

[3] = target: T1, Human CD3 epsilon (CD3ε), on primary …; test: cell-based or functional assay; remark: listed apart in the source

T1 sequence (P07766 23-207 limits assumed): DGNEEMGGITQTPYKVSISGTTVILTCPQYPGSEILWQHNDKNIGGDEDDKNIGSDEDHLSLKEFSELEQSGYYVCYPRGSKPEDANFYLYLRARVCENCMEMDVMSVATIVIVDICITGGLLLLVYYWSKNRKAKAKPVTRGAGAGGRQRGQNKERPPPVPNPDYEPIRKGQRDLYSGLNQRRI

| Binder | H929 Killing EC50 [1] [nM] | EC50 [2] [nM] | EC50, Cytotoxicity [3] [nM] |
| --- | --- | --- | --- |
| BC3B104 (bispecific antibody, human IgG1, kappa, L234A L235A, IgG1 BCMAxCD3; HC1: CD3B2030-N106G HL scFv-Fc; also called BC3B104.001; B2030 HL NtoG) QVQLVQSGAEVKKPGSSVKVSCKASGYTFTRSTMHWVKQAPGQGLEWIGYINPSSAYTNYNQKFQGRVTLTADKSTSTAYMELSSLRSEDTAVYYCASPQVHYDYGGFPYWGQGTLVTVSSGGSEGKSSGSGSESKSTGGSEIVLTQSPATLSASPGERVTLSCSASSSVSYMNWYQQKPGQAPRRWIYDSSKLASGVPARFSGSGSGRDYTLTISSLEPEDFAVYYCQQWSRNPPTFGGGTKVEIKEPKSSDKTHTCPPCPAPEAAGGPSVFLFPPKPKDTLMISRTPEVTCVVVSVSHEDPEVKFNWYVDGVEVHNAKTKPREEQYNSTYRVVSVLTVLHQDWLNGKEYKCKVSNKALPAPIEKTISKAKGQPREPQVYVYPPSREEMTKNQVSLTCLVKGFYPSDIAVEWESNGQPENNYKTTPPVLDSDGSFALVSKLTVDKSRWQQGNVFSCSVMHEALHNHYTQKSLSLSPG heavy: not shown light: EIVLTQSPGTLSLSPGERATLSCRASQSISSSFLTWYQQKPGQAPRLLIYGASSRATGIPDRFSGGGSGTDFTLTISRLEPEDFAVYYCQHYGSSPMYTFGQGTKLEIKRTVAAPSVFIFPPSDEQLKSGTASVVCLLNNFYPREAKVQWKVDNALQSGNSQESVTEQDSKDSTYSLSSTLTLSKADYEKHKVYACEVTHQGLSSPVTKSFNRGEC | 0.237 | 64.2 | 0.237 |
| BC3B105 (bispecific antibody, human IgG1, kappa, L234A L235A, IgG1 BCMAxCD3; HC1: CD3B2030-N106S HL scFv-Fc; also called BC3B105.001; B2030 HL NtoS) QVQLVQSGAEVKKPGSSVKVSCKASGYTFTRSTMHWVKQAPGQGLEWIGYINPSSAYTNYNQKFQGRVTLTADKSTSTAYMELSSLRSEDTAVYYCASPQVHYDYSGFPYWGQGTLVTVSSGGSEGKSSGSGSESKSTGGSEIVLTQSPATLSASPGERVTLSCSASSSVSYMNWYQQKPGQAPRRWIYDSSKLASGVPARFSGSGSGRDYTLTISSLEPEDFAVYYCQQWSRNPPTFGGGTKVEIKEPKSSDKTHTCPPCPAPEAAGGPSVFLFPPKPKDTLMISRTPEVTCVVVSVSHEDPEVKFNWYVDGVEVHNAKTKPREEQYNSTYRVVSVLTVLHQDWLNGKEYKCKVSNKALPAPIEKTISKAKGQPREPQVYVYPPSREEMTKNQVSLTCLVKGFYPSDIAVEWESNGQPENNYKTTPPVLDSDGSFALVSKLTVDKSRWQQGNVFSCSVMHEALHNHYTQKSLSLSPG heavy: not shown light: EIVLTQSPGTLSLSPGERATLSCRASQSISSSFLTWYQQKPGQAPRLLIYGASSRATGIPDRFSGGGSGTDFTLTISRLEPEDFAVYYCQHYGSSPMYTFGQGTKLEIKRTVAAPSVFIFPPSDEQLKSGTASVVCLLNNFYPREAKVQWKVDNALQSGNSQESVTEQDSKDSTYSLSSTLTLSKADYEKHKVYACEVTHQGLSSPVTKSFNRGEC | 0.172 | 20.7 | 0.172 |
| BC3B107 (bispecific antibody, human IgG1, kappa, L234A L235A, IgG1 BCMAxCD3; HC1: CD3B2051-N106A HL scFv-Fc; also called BC3B107.001; B2051 HL NtoA) QVQLVQSGAEVKKPGSSVKVSCKASGYTFTRSTMHWVKQAPGQGLEWMGYINPSSAYTNYNQKFQGRVTLTADKSTSTAYMELSSLRSEDTAVYYCASPQVHYDYAGFPYWGQGTLVTVSSGGSEGKSSGSGSESKSTGGSEIVLTQSPATLSASPGERVTLSCSASSSVSYMNWYQQKPGQAPRRLIYDSSKLASGVPARFSGSGSGRDYTLTISSLEPEDFAVYYCQQWSRNPPTFGGGTKVEIKEPKSSDKTHTCPPCPAPEAAGGPSVFLFPPKPKDTLMISRTPEVTCVVVSVSHEDPEVKFNWYVDGVEVHNAKTKPREEQYNSTYRVVSVLTVLHQDWLNGKEYKCKVSNKALPAPIEKTISKAKGQPREPQVYVYPPSREEMTKNQVSLTCLVKGFYPSDIAVEWESNGQPENNYKTTPPVLDSDGSFALVSKLTVDKSRWQQGNVFSCSVMHEALHNHYTQKSLSLSPG heavy: not shown light: EIVLTQSPGTLSLSPGERATLSCRASQSISSSFLTWYQQKPGQAPRLLIYGASSRATGIPDRFSGGGSGTDFTLTISRLEPEDFAVYYCQHYGSSPMYTFGQGTKLEIKRTVAAPSVFIFPPSDEQLKSGTASVVCLLNNFYPREAKVQWKVDNALQSGNSQESVTEQDSKDSTYSLSSTLTLSKADYEKHKVYACEVTHQGLSSPVTKSFNRGEC | 0.0415 | 8.6 | 0.0415 |
| BC3B109 (bispecific antibody, human IgG1, kappa, L234A L235A, IgG1 BCMAxCD3; HC1: CD3B2051-N106Q HL scFv-Fc; also called BC3B109.001; B2051 HL NtoQ) QVQLVQSGAEVKKPGSSVKVSCKASGYTFTRSTMHWVKQAPGQGLEWMGYINPSSAYTNYNQKFQGRVTLTADKSTSTAYMELSSLRSEDTAVYYCASPQVHYDYQGFPYWGQGTLVTVSSGGSEGKSSGSGSESKSTGGSEIVLTQSPATLSASPGERVTLSCSASSSVSYMNWYQQKPGQAPRRLIYDSSKLASGVPARFSGSGSGRDYTLTISSLEPEDFAVYYCQQWSRNPPTFGGGTKVEIKEPKSSDKTHTCPPCPAPEAAGGPSVFLFPPKPKDTLMISRTPEVTCVVVSVSHEDPEVKFNWYVDGVEVHNAKTKPREEQYNSTYRVVSVLTVLHQDWLNGKEYKCKVSNKALPAPIEKTISKAKGQPREPQVYVYPPSREEMTKNQVSLTCLVKGFYPSDIAVEWESNGQPENNYKTTPPVLDSDGSFALVSKLTVDKSRWQQGNVFSCSVMHEALHNHYTQKSLSLSPG heavy: not shown light: EIVLTQSPGTLSLSPGERATLSCRASQSISSSFLTWYQQKPGQAPRLLIYGASSRATGIPDRFSGGGSGTDFTLTISRLEPEDFAVYYCQHYGSSPMYTFGQGTKLEIKRTVAAPSVFIFPPSDEQLKSGTASVVCLLNNFYPREAKVQWKVDNALQSGNSQESVTEQDSKDSTYSLSSTLTLSKADYEKHKVYACEVTHQGLSSPVTKSFNRGEC | 0.0426 | 13.8 | 0.0426 |
| BC3B108 (bispecific antibody, human IgG1, kappa, L234A L235A, IgG1 BCMAxCD3; HC1: CD3B2051-N106G HL scFv-Fc; also called BC3B108.001; B2051 HL NtoG) QVQLVQSGAEVKKPGSSVKVSCKASGYTFTRSTMHWVKQAPGQGLEWMGYINPSSAYTNYNQKFQGRVTLTADKSTSTAYMELSSLRSEDTAVYYCASPQVHYDYGGFPYWGQGTLVTVSSGGSEGKSSGSGSESKSTGGSEIVLTQSPATLSASPGERVTLSCSASSSVSYMNWYQQKPGQAPRRLIYDSSKLASGVPARFSGSGSGRDYTLTISSLEPEDFAVYYCQQWSRNPPTFGGGTKVEIKEPKSSDKTHTCPPCPAPEAAGGPSVFLFPPKPKDTLMISRTPEVTCVVVSVSHEDPEVKFNWYVDGVEVHNAKTKPREEQYNSTYRVVSVLTVLHQDWLNGKEYKCKVSNKALPAPIEKTISKAKGQPREPQVYVYPPSREEMTKNQVSLTCLVKGFYPSDIAVEWESNGQPENNYKTTPPVLDSDGSFALVSKLTVDKSRWQQGNVFSCSVMHEALHNHYTQKSLSLSPG heavy: not shown light: EIVLTQSPGTLSLSPGERATLSCRASQSISSSFLTWYQQKPGQAPRLLIYGASSRATGIPDRFSGGGSGTDFTLTISRLEPEDFAVYYCQHYGSSPMYTFGQGTKLEIKRTVAAPSVFIFPPSDEQLKSGTASVVCLLNNFYPREAKVQWKVDNALQSGNSQESVTEQDSKDSTYSLSSTLTLSKADYEKHKVYACEVTHQGLSSPVTKSFNRGEC | 0.0853 | 11 | 0.0853 |
| BC3B110 (bispecific antibody, human IgG1, kappa, L234A L235A, IgG1 BCMAxCD3; HC1: CD3B2051-N106S HL scFv-Fc; also called BC3B110.001; B2051 HL NtoS) QVQLVQSGAEVKKPGSSVKVSCKASGYTFTRSTMHWVKQAPGQGLEWMGYINPSSAYTNYNQKFQGRVTLTADKSTSTAYMELSSLRSEDTAVYYCASPQVHYDYSGFPYWGQGTLVTVSSGGSEGKSSGSGSESKSTGGSEIVLTQSPATLSASPGERVTLSCSASSSVSYMNWYQQKPGQAPRRLIYDSSKLASGVPARFSGSGSGRDYTLTISSLEPEDFAVYYCQQWSRNPPTFGGGTKVEIKEPKSSDKTHTCPPCPAPEAAGGPSVFLFPPKPKDTLMISRTPEVTCVVVSVSHEDPEVKFNWYVDGVEVHNAKTKPREEQYNSTYRVVSVLTVLHQDWLNGKEYKCKVSNKALPAPIEKTISKAKGQPREPQVYVYPPSREEMTKNQVSLTCLVKGFYPSDIAVEWESNGQPENNYKTTPPVLDSDGSFALVSKLTVDKSRWQQGNVFSCSVMHEALHNHYTQKSLSLSPG heavy: not shown light: EIVLTQSPGTLSLSPGERATLSCRASQSISSSFLTWYQQKPGQAPRLLIYGASSRATGIPDRFSGGGSGTDFTLTISRLEPEDFAVYYCQHYGSSPMYTFGQGTKLEIKRTVAAPSVFIFPPSDEQLKSGTASVVCLLNNFYPREAKVQWKVDNALQSGNSQESVTEQDSKDSTYSLSSTLTLSKADYEKHKVYACEVTHQGLSSPVTKSFNRGEC | 0.78 | 31.2 | 0.781 |
| BC3B113 (bispecific antibody, human IgG1, kappa, L234A L235A, IgG1 BCMAxCD3; HC1: CD3B2089-N106G HL scFv-Fc; also called BC3B113.001; B2089 HL NtoG) QVQLVQSGAEVKKPGSSVKVSCKASGYTFTRSTMHWVRQAPGQGLEWMGYINPSSAYTNYAQKFQGRVTLTADKSTSTAYMELSSLRSEDTAVYYCASPQVHYDYGGFPYWGQGTLVTVSSGGSEGKSSGSGSESKSTGGSEIVLTQSPATLSASPGERVTLSCSASSSVSYMNWYQQKPGQAPRRWIYDSSKLASGVPARFSGSGSGRDYTLTISSLEPEDFAVYYCQQWSRNPPTFGGGTKVEIKEPKSSDKTHTCPPCPAPEAAGGPSVFLFPPKPKDTLMISRTPEVTCVVVSVSHEDPEVKFNWYVDGVEVHNAKTKPREEQYNSTYRVVSVLTVLHQDWLNGKEYKCKVSNKALPAPIEKTISKAKGQPREPQVYVYPPSREEMTKNQVSLTCLVKGFYPSDIAVEWESNGQPENNYKTTPPVLDSDGSFALVSKLTVDKSRWQQGNVFSCSVMHEALHNHYTQKSLSLSPG heavy: not shown light: EIVLTQSPGTLSLSPGERATLSCRASQSISSSFLTWYQQKPGQAPRLLIYGASSRATGIPDRFSGGGSGTDFTLTISRLEPEDFAVYYCQHYGSSPMYTFGQGTKLEIKRTVAAPSVFIFPPSDEQLKSGTASVVCLLNNFYPREAKVQWKVDNALQSGNSQESVTEQDSKDSTYSLSSTLTLSKADYEKHKVYACEVTHQGLSSPVTKSFNRGEC | 0.0443 | 11.1 | 0.0443 |
